According to the nanobody polyreactivity screen of Harvey et al. (2022):

Assay: yeast display, Sf9 membrane polyspecificity reagent, FACS + sequencing; frameworks hold sequencing errors
Method in brief: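 Sorting gates, low and high (top ~1%), were placed on anti-HA fluorescence to track expression and on streptavidin fluorescence to track reagent binding. A clone's polyreactivity label is taken from the gate it came out of. The reagent was 10% biotinylated, detergent-solubilized Sf9 membrane, applied for 1 hour at 4 °C to galactose-induced yeast display cells.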

Row | Sequence | polyreactivity (PSR sort gate)
1 | QVQLVESGGGLVQAGGSLRLSCAASGFIFRYNAMGWYRQAPGKEREFVAAISQGGASTYYADSVKGRFTISRDNAKNTVYLQMNSLKPEDTAVYYCAREPSIFTPSYDYWGQGTQVTVSS | low polyreactivity
2 | QVQRVESGGGLVQAGGSLRLSCAASGRTFAPNAMGWYRQAPGKERELVAAITRRTGSTYYADSVKGRFTISRDNAKNTVYLQMNSLKPEDTAVYYCNGRRRTWYGFYYWGQGTQVTVSS | high polyreactivity
3 | QVQLVETAGGIVQAGGSLRLSCAASGRTNKYYAMGWYRQAPGKEREWVAVISWSGGSTYYADSVKGRFTISRDNAKNTVYLQMNSLKPEETAVYYCAARKRAQQGTRDHDYWGQGTQVTVSS | high polyreactivity
4 | QVQLVESGGGLVQAGGSLRLSCAASGRTFGYYAMGWYRQAPGKERELVASISWIGDDTYYADSVKGRFTISRDYAKNTVYLQMNSLKPEDTAVYYCNAVYAGRYFGFDYWGQGTQVTVSS | high polyreactivity
5 | QVQLVESGGGLVQAGGSLRLSCAASGLTFIKYTMGWSRQAPGKERELVATIRASTGSTYYADSVKGRFTISRDNAKNTVYLQMNSLKPEDTAVYYCATRSYPPYYGLYGGRAYNYWGQGTQVTVSS | high polyreactivity
6 | QVQLVESGGGLVQAGGSLRLSCAASGLTLDKYAMGWYRPAPRKERELVAGINSRGGSTYADSVKGRFTISRDNAKNTVYLQMNSMKPEDTAVYYCAADGKVQGGYYWGQGTQVTVSS | high polyreactivity
7 | QDHLVESGVGLVQAGGSLRLSCAASGFAFWTYTMGWYRQAPGKERELVATITRGGRTKYADSVKGRFTISRDNAKNTVYLQMNSLKPEDTAVYYCAAARRRTGVRMDYWGLGTQVTVSS | high polyreactivity
8 | QVQLVESGGGLVQAGGSLRLICAASGSTFYTYAMGWYRQAPGKERELVAAITYSGGTTYYADSVKGRFTISRDSAKNTVYLQMNSLKPEDTAFYYCNTRSYYYSDDYWGQGTQVTVSS | low polyreactivity
9 | QVQLVESGGGLVQAGGSLRLSCAASGGIYYYAMGWYRQAPGKERELVAAISSGGGNTNYADSVKGRFTLSRDNAKNTVYLQMNSLKPEDTAVYYCATDGFIPTYSYTEIGYDYWGQGTQVTVSS | low polyreactivity
10 | QVQLVESGGGLVQAGGSLRLSCAASGRTFIEYAMAWYRQAPGKERELVAAISRNDGGSTYYADSVKGRFTISRDNAKNTVYLQMNSLKPEDTAVYYCAARRYISAHVRYGSWGQGTQVTLSS | high polyreactivity
11 | QVQLVESGGGLVQAGGRLRLSCAASGSIFSIYPMGWYRQAPGKERDFVASITVTDGSTYYADSVKGRFTISRDNAKNTVYLQMNSLKPEDTADYYCNADGWYALYEWLAVSGYYWGQGTQVTVSS | low polyreactivity
12 | QVQLVESGGGLVQAGGSLRLSCAASGFIFNAYAMGWYRQAPGKERELVAAISTRGSNTYYADSVKGRFTISRDNAKNTVYLQMNSLKPEDTAVYDCAARGYVTYSKSNYWGQGTQVTVSS | high polyreactivity
13 | QVQLVESGGGLVQAGGSLRLSCAPSGLIFAHYDMGWYRHAPGKERELVAGITSGGSTNYADSVKGRFTISRDNAKITVYLQMNSQKPEYTAVYYCNADRAGFLGFYLYDYWGQGTQVTVSS | low polyreactivity
14 | QVQLVESGGGLVQPGGSLRLSCAASGRTIERNTMGWYRQAPGKERELFAAISYDGGSTYYADSVKGRFTISRDNAKNTVYLQMNSLKPEDTAVYYCNAGGSEIYRSPFDYWGQGTEVTVSS | low polyreactivity
15 | QVQLVESGGGLVQAGGSLRLSCAASGSIFSGYAMGWYRQAPGKERELVAAITSGGSTDYADSVKGRFTISRDNAKNSVYLQMNSLKPEDTAVYYCAAEGGYSSYGYDYWGQGTQVTVSS | low polyreactivity
16 | QVQLVESGGGLVQAGGSLRLSCAASGRTFPINAMGWYRQAPGKERELVASIRWTDGTTYYADSVKGRFTISRDNAKNTVYLQMNSLKPEDTAVYYCAADAEGSASKYDYWGQGTQVTVSS | low polyreactivity
17 | QVQLVESGGGLVQAGGSLLLSCAASGSIFQQYAMGGSRQAPGKERDLVAAISWGDGSTYYADSVKGRFTISRDNAKNTVYLQMNSLKPEDTAVYYCNAYASAPLWSLEDDYWGKGTQVTVSS | low polyreactivity
18 | QVQLVESGGGLVQAGGSLRLSCAASGSTFPRNAMGWYRQAPGKEWELVAAISGRGVRTYYADSVKGRFTISSDNAKNTVNFQMYSLKPEDTAVYYCAASRGKGVGLAYDYWGQGTQVTVSS | high polyreactivity
19 | QVQLVESGGGLVQAGGSLRLSCAASGRIFIVNTMGWYRQAPGKERELVATIDSDGDTNYADSVKGRFTISRDNAKNTVYLQMNSLKPEDTAVYYCAASYTHTLAALKGGRMDYWGQGTQVTVSS | low polyreactivity
20 | QVQLVESGGGLVQAGGSLRLSCAASGRTFWKYVMGWYRQAPGKERELVAVISRPAGSTYYADSVKGRFTISRDNAKNTVYLQMNSLKPEDTAVYYCAKRPKNKPVLGDYDHWGQGTQVTVSS | low polyreactivity
21 | QVQLVESGGGLVQAGGSLRLSCAASGSIFIYYAIGWYRKAPGKERELVAAIDRSGGNTYYADSVKGRFTISRDNAKNTVYLQMNSLKPEDTAVYYCAALVHRRVQYDYWGQGTQVTVSS | high polyreactivity
22 | QVQLVESGGGLVQAGGSLRLSCAASGRITFRNAMVWYRQAPGKERELVASITSGGSTYYADSVKGRFTISRDNAKNTVYLQMNSLKPEDTAVYYCAGEGTARTSPPMDYWGQGTQVTVSS | high polyreactivity

Row | Sequence | polyreactivity (PSR sort gate)
23 | QVQLVESGGGIVQAGGSLRLSCAASGSTFLYYAMGWSRQAPGKEREFVAAISISGGSTYYADSVKGRFTISRDNAKNTVYLQMNSLKPEDTAVYYCAAEVGIVDYDYWGQGTQVTVSS | low polyreactivity
24 | QVQRVESGGGLVQAGGSLRLSWAASGSTFSRYAMGWYRQAPGTERELVAAISASGGGTYYADSVKGRFTISRDNAKNTVYLQMNSLQPEDTAVFYCAAVRIARAVQDYDYWGQGTQVTVSS | high polyreactivity
25 | QVQLVESGGGLVQAGCSLRLSCAASGGTFGRYAMGWYRQAPGTERELVASITTGGRTNYADSVKGRFTISRDNAKNTVYLQMNSLKPEDTAVYYCAKKRYGYPVPFYYWGQGTQVTVSS | high polyreactivity
26 | QVQLVESGGGLVQAGGSLRLSCAASGRTFDGYAMGWYRPAPGKERELVAAISWGGGSTYYADSVKGRFTISRDNAKNTVYLQMNSLKPEDTAVYYCNAYTYYYGNDYWGQGTQVNVSS | high polyreactivity
27 | QFQLVESGGGLVQAGGSLRLSCAASGRIFVPNGMGWYRQAPGKERELVAVIDWSGGSTYYADSVKGRFTISRDNAKNTVYLQMNRLKPEDTAVYYCNAYPYDESDYWGQGTQVTVSS | low polyreactivity
28 | QVQLVESGGGLVQAGGSLRLSCAASGRIFPKYAMGGDRQAPGTERPLVAAISSSGGSKYYADSVKGRFTISRDNAKNTVYFQMNSLKPEDTAVYYCNVDKATRDRYPGFDYWGQGTQVTVSS | high polyreactivity
29 | QVQLVESGGGLVQAGGSLRLSCAASGRTFRLYAMGWYRQAPGKERELVAAIRSGGSTNYADSVKGRFTISRDNEKNTVYLQMNSLKPEYTAVYYCAVDGYFFQGPYYYWGQGTQVTVSS | low polyreactivity
30 | QVQLVESGGGLVQAGGSLRLSCAASVYIFVRNALGWYRQAPGKERELVAAISGSGGSTYYADSVKGRFTISRDNAKNTVSLQMNSLIPEDTAVDYCAADYATVTWRGIAYDYWGQGTQVTVSS | low polyreactivity
31 | QVQLVESGGGLVQAGGSLRLSCAASGITFYDNVMGWYRQAPGKERELVAAITSGGSTNYGDSVKGRFTFSRDNAKNTVYLQMNSLKPEETAVYYCAAQPRVVYEFPYRYGYWGQGTQVTVSS | low polyreactivity
32 | QVQLVESGGGLVQAGGSLRLSCAASGSIFDQYAMGWYRPAPGKERELVAAIDTSGGSTYYADSVKGRFTISRDNAKNTVYLQMNSLKPEDTAVYYCNAGGDGDILTTEMDYWGPGTQVTVSS | low polyreactivity
33 | QVQLVESGGGLVQAGGSLRLSCAASGRIIYTYAMGWYRQAPGKERELVAAISWSGGSTYYADSVKGRFTISRDNAKNTVYLQMNSLKPEDTAVYFCNAAYYGYENLSKRGYWGQGTQVTVSS | high polyreactivity
34 | QVQLVESGGGLVQAGGSLRLSCAASGRIFGYYAMGWYRQAPGKERELVAAISYNVVSTNYADSVKGRFTISRDNPKNTVYLQMNSLKPEDTAVYYCAADYGRPYTAFDYWGQGTQVTVSS | low polyreactivity
35 | QVQLVESGGGLVQAGGSLRLSCAASGRIFRFYAMGWYRQAPGKERELVAAISSRGGSTYYADSVKGRFTISRDNAKNTVYLQMNSLKPEDTAVYYCNAYGSTSQMDYWGQGTQVTVSS | high polyreactivity
36 | QVQLVESGGGLVQAGGSLRLSCAASGSILDSNAMGWYRQAPGQERELVAAISRSGVSTHYADSVKGRFSISRDNAKNTVYLQMNSLKPEDTAVYYCARTGQSLYSRYYYWGQGTQVTVSS | low polyreactivity
37 | QVQIVESGGGLVQAGGSHRLSCAATGLTFKYYAMGWYIQAPGKERELVAAISRSGGSTYYADSVKGRFTISRDNAKNTVYLQKNSLKPEDTAVYYCNARAGRYYSVYYPGDYWGQGTQVTVSS | high polyreactivity
38 | QVQLVESGGGLVQAGGSLRLSCAASGSIIYRNAMGWYRQAPGKERELDAAISYSGTSTNYADSVKGRFTISRDNAKNTVYLQMNSLKPEDTAVYYCAARGFPHRRHSLYDYWGQGTHVTVSS | low polyreactivity
39 | QVQLVESGGGLVQAGGSLRVSCAASGSTFPSNAMGWYRQAPGKERELVATITSAGGGTYYADSVKGRFTISRDNAKNSVYLQMNSLKAEDTAVYYCNADGPAGDAFDYWGPGTQVTVSS | low polyreactivity
40 | QVQLVESGGGIVQAGGSLSLSCAASGRTFIRNAIGCYRQAPGKERELVAAINSGGITNYADSVKGRFTISRDNANNTVYLQMNSLKPEDTAVYYCNARQVLYGLYLRAYPYEYWGQGTQVTVSS | low polyreactivity
41 | QVQLVESGGGLVQAGGSLRLSCAASGSTFGYNDMGWYRQAPGKERELVAAISVSDSSTYYADSVKGRFTISRDNAKNTVYLQMNSLKPEDTAVYYCAAYIYYNYSRQYWYDYWGQGTQVTVSS | low polyreactivity
42 | QVQLVESGRGLVQAGGSLRLSCAASGSTFRYYAMGWYRQAPGKERELVAAISYSGGSTYYADSVKGRFTISRDNAKNTVYLQMNSLKPEDTAVYYCASSWYSIGKRYYYWGQGTQVTVSS | high polyreactivity
43 | QVQLVESGGGLFQAGGSLRLSCAASGNTFLRNAMGWYRQPPWKERELVAAISRSGGRTYYADSVKGSFTISRDNAKNTVYLQMISLKPDDTAVYYCAVVTQFGDGYYWGQGTQVTVSS | high polyreactivity
